Series [1] addresses T1, thrombin (UniProt P00734;P00734 328-363;364-622). The series is described as follows: AFM imaging; 5 nM origami, 100 nM thrombin; empty:filled cavities 25:0; Na+ samples: 140 mM NaCl, 40 mM Tris-acetic acid, 1 mM EDTA, 12.5 mM MgCl2, 5 mM KCl; specificity tests 5 nM origami, 100 nM protein; imaging buffer, pH and tem.
Series [2] has as its target T1, thrombin. The series is described as follows: AFM imaging / C-AFM; monovalent anchoring; Na+ samples: 140 mM NaCl, 40 mM Tris-acetic acid, 1 mM EDTA, 12.5 mM MgCl2, 5 mM KCl; specificity tests 5 nM origami, 100 nM protein; imaging buffer, pH and tem.

B1: DNA origami with four SA aptamers (20-SAA1) (mixed)
DNA: TGAATCTAACGGTGCGTATCTTTTTCTGTGAGACGACGCACCGTCGCAGGTTTTGTCTCACAGTTTTGTACCTCGGAGACCAAGTAG
modifications: 3'-C3-S-S-C3 on edge staples (gold samples); none on aptamer strand
On to B1, for which the binding result with thrombin [1] was “no binding”.

B2: DNA origami with TBA15 only (20-TBA15) (mixed)
DNA: CATCTGACCTCTGTGCTGCTTTTTGGTTGGTGTGGTTGGTTTTTTCACGGTAGCACGCATAGG
modifications: 3'-C3-S-S-C3 on edge staples; none on aptamer strand
As to B2, in the series with thrombin [2], the binding result is given as “binds”.
